Entries after “also recorded” stand apart in the source; their conditions may differ.
Key:
nDer p 1 [1] = biological target: T1, nDer p 1 (Dermatophagoides pteronyssinus, UniProt P08176); format: biochemical, D. pteronyssinus
T1 construct: Der p 1 has only been found in its mature form in the D. pteronyssinus faecal particles; from tissue; host or cells: D. pteronyssinus mite material
T1 sequence (P08176 99-320): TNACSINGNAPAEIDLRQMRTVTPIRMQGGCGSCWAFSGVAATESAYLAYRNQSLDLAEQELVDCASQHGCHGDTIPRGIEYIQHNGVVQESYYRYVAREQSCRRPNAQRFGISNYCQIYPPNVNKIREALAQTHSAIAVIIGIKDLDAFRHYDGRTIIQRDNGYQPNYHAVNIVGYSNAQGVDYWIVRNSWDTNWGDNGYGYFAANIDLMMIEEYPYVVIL
Method: (§1) The enzymatic activity of nDer p 1 was evaluated using the peptide substrate Z-LLE linked to the fluorescent group AMC. […] When Der p 1 is added, it cleaves the bond between AMC and the peptide sequence and the fluorescence increases considerably. Therefore the product formation was evaluated in terms of increase in fluorescence.
(§2) All activity assays were performed on a Spectra Max instrument (GeminiXS Molecular Devises) at a temperature of 37° C. The fluorescence was measured using an excitation wavelength (λex) of 350 nm and emission wavelength (λem) of 450 nm. The Spectra Max instrument was set to automix before the first read and in between reads. The enzymatic activity was measured in RFU, relative fluorescent units. Using the software SoftMax® PRO 4.3 LS, the initial velocity of the reaction (V0) was estimated from the maximal slope of the progress curve.
(§3) Stock solutions of assay buffer (50 mM Tris (Sigma), 5 mM EDTA (Fluka)) and 1 M DTT (Merck) were made once and kept at +5° C. and −20° C. respectively. DTT was kept in aliquots of 55 μl, and when necessary DTT was added to the assay buffer just before use.
(§4) The total volume applied for each well in the micro titer plate (Corning, 96-well non-binding black polystyrene plate) amounted to 200 μl. The reaction was always started by the addition of 50 μl of 0.1 mM or 1 mM substrate diluted in assay buffer, and the fluorescence was measured continuously for 20-90 minutes.
It was tested whether glutathione (GSH) could activate nDer p 1, and whether the activation was dose-dependent. The activity of 1.3 μM nDer p 1 was determined in the presence of different GSH concentrations of 0.5 mM, 1.0 mM, 5.0 mM, 10.0 mM and 25.0 mM. As a control, the activity was also measured in the presence of 5 mM DTT. The fluorescence was measured for 90 minutes.

nDer p 1 [2] = biological target: T1, nDer p 1; format: biochemical, D. pteronyssinus; remark: listed apart in the source
Method: as §1, §2, §3, §4
It was evaluated whether nDer p 8, as a glutathione S-transferase, could catalyse the activation of nDer p 1 by GSH. In this assay, nDer p1 was kept at 1.3 μM and the GSH concentration at 100 μM (physiological concentration in the airways). nDer p 8 was added at four different concentrations: 0.4 μM, 0.6 μM, 0.8 μM and 1.2 μM. The last two components to be added to the well were GSH quickly followed by the substrate. The reaction was followed during 90 minutes.

nDer p 1 [3] = biological target: T1, nDer p 1; assay: Proteolytic activity of purified nDer p 1 pools in presence or absence of E64 (Z-LLE-AMC substrate); format: biochemical, D. pteronyssinus; settings: for enzymatic activity of Der p 1 pool: DTT as reducing agent, absence of E64, 0.1 mM Z-LLE-AMC, 37° C.
Method: as §1, §2, §3, §4
An enzymatic assay in the presence or absence of the cysteine protease specific inhibitor E64 was used in order to verify the identity of the purified protein as cysteine protease. One aliquot of nDer p 1 was pre-incubated for 1 hour at 37° C. with 25 μM E64 dissolved in assay buffer, while another aliquot was not. Afterwards the substrate was added at 0.1 mM concentration. The fluorescence was measured for 20 minutes. The concentration of nDer p 1 in the assay was 2.6 μM.

[4] = system: confluent airway epithelial cells; settings: in vitro, Wan et al. 1999; cited from earlier work
[5] = proteolytically active Der p 1 versus Der p 1 inactivated with E64, cited from earlier work
[6] = 0.1 mM GSH, nDer p 8 0.4-1.2 μM

## N[C@@H](CCC(=O)N[C@@H](CS)C(=O)NCC(=O)O)C(=O)O [GSH, Glutathione]
nDer p 1 [1]; 1.3 μM nDer p 1, GSH 0.5-25.0 mM, 90 minutes
  activation of nDer p 1 by GSH: dose-dependent
nDer p 1 [1]; 5.0 mM GSH
  time after which nDer p 1 activity evolves: approx. 8 minutes
nDer p 1 [1]; 10.0 mM GSH
  time after which nDer p 1 activity boosts: 6 min
nDer p 1 [1]; 25.0 mM
  time after which nDer p 1 activity increases notably: 3 min
nDer p 1 [1]; FIG. 4
  correlation between initial velocity of nDer p 1 activity and GSH concentration: approximate linear correlation
nDer p 1 [1]; GSH 0.1-0.5 mM (physiological concentrations in the airways)
  lag time of nDer p 1 activation (time required to detect enzyme activity): around 30 minutes
nDer p 1 [1]; control 5 mM DTT
  speed of nDer p 1 activation compared with DTT: slower than the activation by DTT
nDer p 1 [2]; 0.1 mM GSH, no Der p 8
  Der p 1 activity when activated by GSH: very low
  lag time of Der p 1 activation: approximately 30 minutes

## nDer p 8: glutathione S-transferase from Dermaphagoides pteronyssinus, 25589 Da, 219 amino acids
nDer p 1 [2]; 0.4 μM nDer p 8, 0.1 mM GSH
  time until activity differentiated from the test without nDer p 8: over 30 minutes
nDer p 1 [2]; 1.2 μM Der p 8, 0.1 mM GSH
  time after which activity increased: approximately 8 minutes
nDer p 1 [2]; 0.1 mM GSH, FIG. 6
  velocity of the reaction at the end of the assay versus nDer p 8 concentration: increases significantly
nDer p 1 [2]; [6]
  effect of Der p 8 on Der p 1 activity (activation by GSH): higher; also recorded: enhances the activation
  effect of Der p 8 on lag time of Der p 1 activation: shorter

## CC(C)C[C@H](NC(=O)[C@H]1O[C@@H]1C(=O)O)C(=O)NCCCCN=C(N)N (relative stereo) [E64, L-trans-epoxysuccinyl-leucylamido(4-guanidino)butane, reference compound]
nDer p 1 [3]; 25 μM E64, pre-incubated 1 hour at 37° C., 2.6 μM nDer p 1
  inhibition of nDer p 1 proteolytic activity: completely inhibited; also recorded: entirely inhibited

B1: nDer p 1: major house dust mite allergen, a 25371 Da papain-like cysteine protease purified from D. pteronyssinus (protein, UniProt P08176 99-320, looked up)
Peptidase 1: TNACSINGNAPAEIDLRQMRTVTPIRMQGGCGSCWAFSGVAATESAYLAYRNQSLDLAEQELVDCASQHGCHGDTIPRGIEYIQHNGVVQESYYRYVAREQSCRRPNAQRFGISNYCQIYPPNVNKIREALAQTHSAIAVIIGIKDLDAFRHYDGRTIIQRDNGYQPNYHAVNIVGYSNAQGVDYWIVRNSWDTNWGDNGYGYFAANIDLMMIEEYPYVVIL
nDer p 1 [1]; no GSH
  nDer p 1 activity when GSH is absent: no activity
[4]
  effect on intercellular tight junctions: causes disruption of intercellular tight junctions
nDer p 1 [2]; 1.3 μM nDer p 1, substrate present, no reducing agent
  Der p 1 activity alone: no activity
[5]; mice
  lung inflammation: notably higher
[5]; sensitized mice, intranasal
  total IgE level in the circulation: significantly higher

B2: Pool 2: second flow-through peak of nDer p 1 from the SBTI-agarose column (protein, UniProt P08176 99-320, looked up)
Peptidase 1: TNACSINGNAPAEIDLRQMRTVTPIRMQGGCGSCWAFSGVAATESAYLAYRNQSLDLAEQELVDCASQHGCHGDTIPRGIEYIQHNGVVQESYYRYVAREQSCRRPNAQRFGISNYCQIYPPNVNKIREALAQTHSAIAVIIGIKDLDAFRHYDGRTIIQRDNGYQPNYHAVNIVGYSNAQGVDYWIVRNSWDTNWGDNGYGYFAANIDLMMIEEYPYVVIL
modifications: SBTI-agarose flow-through pool 2
nDer p 1 [3]
  enzymatic activity of Der p 1 pool: did not show any activity
nDer p 1 [3]; listed as second pool
  enzymatic activity of Der p 1 pool: did not show any significant activity

B3: nDer p 1 pool 1: first flow-through peak of nDer p 1 from the SBTI-agarose column (protein, UniProt P08176 99-320, looked up)
Peptidase 1: TNACSINGNAPAEIDLRQMRTVTPIRMQGGCGSCWAFSGVAATESAYLAYRNQSLDLAEQELVDCASQHGCHGDTIPRGIEYIQHNGVVQESYYRYVAREQSCRRPNAQRFGISNYCQIYPPNVNKIREALAQTHSAIAVIIGIKDLDAFRHYDGRTIIQRDNGYQPNYHAVNIVGYSNAQGVDYWIVRNSWDTNWGDNGYGYFAANIDLMMIEEYPYVVIL
modifications: SBTI-agarose flow-through pool 1
nDer p 1 [3]
  enzymatic activity of Der p 1 pool: there was activity
nDer p 1 [3]; listed as first pool
  enzymatic activity of Der p 1 pool: clear activity
